Assay [1] concerns the target CD2 (human) (UniProt P06729).
Target sequence in this assay (P06729 25-351): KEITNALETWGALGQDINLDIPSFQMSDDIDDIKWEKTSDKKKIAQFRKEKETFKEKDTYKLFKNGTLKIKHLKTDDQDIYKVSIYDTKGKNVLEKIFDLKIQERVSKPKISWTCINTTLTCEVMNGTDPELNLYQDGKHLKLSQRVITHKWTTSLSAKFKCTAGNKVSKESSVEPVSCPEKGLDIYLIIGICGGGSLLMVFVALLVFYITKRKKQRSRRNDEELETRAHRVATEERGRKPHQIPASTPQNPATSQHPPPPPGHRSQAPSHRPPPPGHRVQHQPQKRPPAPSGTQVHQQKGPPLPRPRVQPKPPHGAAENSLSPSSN
The target of assay [2] is CD2 (human) (UniProt P06729). Put plainly: flow cytometry, CHO-CD2 cells. Background: Flow cytometry measures light scatter and fluorescence of single cells or particles in a stream.
Target sequence in this assay (P06729 25-351 limits assumed): as the sequence (P06729 25-351) above
The target in assay [3] is CTLA-4 (Homo sapiens (Human)) (UniProt P16410). Put plainly: flow cytometry, transfected cells.
The target of assay [4] is ICOS (Homo sapiens (Human)) (UniProt Q9Y6W8). Nature of the assay: flow cytometry, transfected cells.
Assay [5] has as its target CTLA-4 (Homo sapiens (Human)) (UniProt P16410). Nature of the assay: flow cytometry, transfected cells. This is another data set of the same source.
Assay [6] addresses ICOS (Homo sapiens (Human)) (UniProt Q9Y6W8). Put plainly: flow cytometry, transfected cells. This is another data set of the same source.
For assay [7], the target named is CTLA-4 (Homo sapiens (Human)) (UniProt P16410). Nature of the assay: flow cytometry, transfected cells. The source holds these as a separate data set.
Assay [8] deals with ICOS (Homo sapiens (Human)) (UniProt Q9Y6W8). Nature of the assay: flow cytometry, transfected cells. This is another data set of the same source.

Like-named read-outs stand apart in the source and are kept apart here.

Sequence of CTLA-4 (Homo sapiens (Human)) (P16410 36-223): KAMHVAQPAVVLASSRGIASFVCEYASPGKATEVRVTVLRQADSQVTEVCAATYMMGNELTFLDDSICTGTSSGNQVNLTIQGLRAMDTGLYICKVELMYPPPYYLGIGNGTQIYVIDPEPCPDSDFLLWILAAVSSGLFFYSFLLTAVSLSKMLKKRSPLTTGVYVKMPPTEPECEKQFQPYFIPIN
Sequence of ICOS (Homo sapiens (Human)) (Q9Y6W8 21-199 limits assumed): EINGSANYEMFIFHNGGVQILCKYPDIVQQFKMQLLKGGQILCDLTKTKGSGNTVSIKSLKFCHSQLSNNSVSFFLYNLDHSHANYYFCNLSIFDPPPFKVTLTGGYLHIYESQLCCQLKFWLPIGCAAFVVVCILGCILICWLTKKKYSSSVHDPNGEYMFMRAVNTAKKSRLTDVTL
Sequence of Wildtype ICOSL ECD-Fc (Fc fusion) (chain): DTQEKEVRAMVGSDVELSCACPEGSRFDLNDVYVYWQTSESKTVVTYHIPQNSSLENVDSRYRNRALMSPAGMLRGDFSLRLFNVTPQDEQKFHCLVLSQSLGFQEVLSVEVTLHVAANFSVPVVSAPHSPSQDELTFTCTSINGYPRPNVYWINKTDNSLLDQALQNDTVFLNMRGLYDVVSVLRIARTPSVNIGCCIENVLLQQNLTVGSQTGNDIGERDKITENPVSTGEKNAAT

Substance CD58 (WT) 3650-Fc (Fc fusion) returned a 100 nM IFN-gamma (pg/mL), SEB assay with CD2 (human) [1] of 9660 pg/mL. Besides, the EC50 with CD2 (human) [2] was determined as 0.2 nM.
In the case of Wildtype ICOSL ECD-Fc (Fc fusion), the MFI in assay [3] was determined as 4770 MFI; in assay [4], 83800 MFI; in assay [5] it was 3800 MFI; in assay [6] it was 36600 MFI; in assay [7], 330000 MFI; in assay [8] it was 212000 MFI.

Usually EC50 stands for the concentration giving half of the maximal effect. High values mean a less potent agent, low ones a more potent agent.
